Test results: patent publication US20210261663A1 (JIANGSU HENGRUI MEDICINE, published 2021)

Target: T1, human TIM-3 full-length, overexpressed on CHO-S cells (human, UniProt Q8TDQ0 22-301)
T1 construct: also called HAVCR2; Tim-3 overexpressing CHO-S cells
Assay: cell-based ELISA on fixed CHO-S cells overexpressing full-length human TIM-3, HRP secondary antibody, OD450

B1: ABTim-3 (antibody, V domains shown)
VH: QVQLQQPGAELVKPGASVKMSCKASGYTFTSYNMHWIKQTPGQGLEWIGDIYPGNGDTSYNQKFKGKATLTADKSSSTVYMQLSSLTSEDSAVYYCARVGGAFPMDYWGQGTSVTVSS
VL: DIVLTQSPASLAVSLGQRATISCRASESVEYYGTSLMQWYQQKPGQPPKLLIYAASNVESGVPARFSGSGSGTDFSLNIHPVEEDDIAIYFCQQSRKDPSTFGGGTKLEIK
- EC50 (read off the curve): ~0.1 nM
